Laboratory results reported in patent publication US12201676B2, “Composition comprising diamine oxidase for use in the treatment or prevention of fibromyalgia or chronic fatigue syndrome” (DR HEALTHCARE ESPAÑA, S.L., priority 2011, dated 2025).

Columns and labels:
[1] = test system: subjects diagnosed with chronic fatigue syndrome and with DAO deficit; assay: Efficacy of DAO compositions in chronic fatigue syndrome, grades of improvement on the CLINIC scale; format: in vivo, human; settings: chronic fatigue syndrome grades II, III and IV with DAO deficit, 4 mg DAO twice a day, count of 23 subjects
Protocol: Oral compositions containing DAO of the present invention were tested in a total of 46 subjects diagnosed with chronic fatigue syndrome, as out-patients.
To evaluate the degree of affectation of chronic fatigue syndrome in candidate study subjects, the quality of life of these subjects was evaluated using a simple scale of 4 successive grades (I, II, III and IV), with criteria used in the clinic. This scale is used in the Chronic Fatigue Syndrome (CFS) Functional Unit in the Hospital Clinic.
The CLINIC scale consists of dividing the patients with chronic fatigue syndrome into four different grades of functional affectation depending on the effect of their fatigue on quality of life:
GRADE I: the patient is sometimes or occasionally fatigued, without significant limitation (<50%) of work or daily life activities.
GRADE II: persistent presence of fatigue, oscillating but without improvement, with marked effect (>50%) on work and also daily life activities.
GRADE IV: extreme fatigue that requires the help of other people for basic personal activities and that makes autonomy and the activities of daily life impossible.
Improvement is evaluated when the patient passes from a higher to a lower grade in terms of the number of improvement grades.

[2] = test system: histamine level in blood; assay: Histamine level in blood of chronic fatigue syndrome subjects; format: in vivo, human; settings: 4 mg DAO twice a day

B1: diamine oxidase (protein, UniProt P19801 20-751, looked up)
Diamine oxidase …: EPSPGTLPRKAGVFSDLSNQELKAVHSFLWSKKELRLQPSSTTTMAKNTVFLIEMLLPKKYHVLRFLDKGERHPVREARAVIFFGDQEHPNVTEFAVGPLPGPCYMRALSPRPGYQSSWASRPISTAEYALLYHTLQEATKPLHQFFLNTTGFSFQDCHDRCLAFTDVAPRGVASGQRRSWLIIQRYVEGYFLHPTGLELLVDHGSTDAGHWAVEQVWYNGKFYGSPEELARKYADGEVDVVVLEDPLPGGKGHDSTEEPPLFSSHKPRGDFPSPIHVSGPRLVQPHGPRFRLEGNAVLYGGWSFAFRLRSSSGLQVLNVHFGGERIAYEVSVQEAVALYGGHTPAGMQTKYLDVGWGLGSVTHELAPGIDCPETATFLDTFHYYDADDPVHYPRALCLFEMPTGVPLRRHFNSNFKGGFNFYAGLKGQVLVLRTTSTVYNYDYIWDFIFYPNGVMEAKMHATGYVHATFYTPEGLRHGTRLHTHLIGNIHTHLVHYRVDLDVAGTKNSFQTLQMKLENITNPWSPRHRVVQPTLEQTQYSWERQAAFRFKRKLPKYLLFTSPQENPWGHKRTYRLQIHSMADQVLPPGWQEEQAITWARYPLAVTKYRESELCSSSIYHQNDPWHPPVVFEQFLHNNENIENEDLVAWVTVGFLHIPHSEDIPNTATPGNSVGFLLRPFNFFPEDPSLASRDTVIVWPRDNGPNYVQRWIPEDRDCSMPPPFSYNGTYRPV
notes: Enzyme diamine oxidase
Number of grades of improvement: 1 (subjects) [1]: 16 of 23
Number of grades of improvement: 2 (subjects) [1]: 4 of 23
Histamine level in blood [2]: 2-20 micrograms/0.1 L
